T1: lymphatic vessel endothelial hyaluronan receptor 1 protein (LYVE-1) (R&D, Cat. No. 2089-Ly) (UniProt Q9Y5Y7 24-232, limits assumed)
T1 sequence (looked up): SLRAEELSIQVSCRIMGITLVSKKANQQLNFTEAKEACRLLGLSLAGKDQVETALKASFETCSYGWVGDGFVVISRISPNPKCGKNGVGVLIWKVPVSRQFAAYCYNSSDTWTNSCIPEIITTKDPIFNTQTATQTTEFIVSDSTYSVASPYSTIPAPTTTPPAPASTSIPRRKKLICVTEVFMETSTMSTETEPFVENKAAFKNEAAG

T2: cynomolgus CD44 (on cells) (cynomolgus monkey, UniProt P16070 21-742 (human entry))
T2 chain: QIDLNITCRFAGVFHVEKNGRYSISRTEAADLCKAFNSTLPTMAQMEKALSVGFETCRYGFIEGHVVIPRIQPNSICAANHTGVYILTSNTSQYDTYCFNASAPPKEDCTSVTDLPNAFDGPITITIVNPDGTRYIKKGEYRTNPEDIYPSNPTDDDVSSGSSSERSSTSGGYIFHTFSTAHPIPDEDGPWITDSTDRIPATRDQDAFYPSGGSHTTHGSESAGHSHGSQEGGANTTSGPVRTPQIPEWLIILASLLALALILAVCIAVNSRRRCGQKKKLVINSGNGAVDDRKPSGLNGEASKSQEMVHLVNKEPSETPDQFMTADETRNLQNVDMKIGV


Key:
[1] = target: T1, lymphatic vessel endothelial hyaluronan …; experiment: ELISA on plate-coated LYVE-1 (50 ng), anti-human kappa-HRP detection
Experimental: (§1) A 96 well ELISA plate (Immuno Maxisorp plate, Nunc Cat. No. 442-404) was coated with 50 ng CD44-Ig fusion protein or LYVE-1 and incubated overnight at 4° C. The plates were then washed by PBS, 0.05% Tween-20 and blocked by 3% BSA in PBS for two hours at room temperature. […] The ELISA plates were incubated at room temperature for 1.5 hours. […] Plates were washed again, and […] of TMB were added and incubated for 5 to 10 minutes. ELISA reactions were stopped with stop solution and OD450 values were measured by a plate reader.

human CD44 (on cells) [2] = target: T3, human CD44 (on cells) (human, UniProt P16070 21-742); experiment: cell-based or functional assay
[3] = target: T4, human CD44-IgG1 fusion protein (extracellular domain of human CD44 fused to human IgG1) (human); experiment: ELISA on plate-coated CD44-Ig against plate-coated LYVE-1
T4 construct: also called human CD44-Ig fusion protein; human CD44-Fc fusion protein
Experimental: as §1

human CD44 (on cells) [4] = target: T3, human CD44 (on cells); experiment: cell-based or functional assay; remark: listed apart in the source
[5] = target: T2, cynomolgus CD44 (on cells); experiment: cell-based or functional assay
human CD44 (on cells) [6] = target: T3, human CD44 (on cells); experiment: FACS competition against labelled anti-CD44 antibody MEM-85 on cells bearing human CD44; cells: 300-19 cells transfected with human CD44 per legend paragraph 42, but the range 0.2 to 20 µg/ml is that of the human peripheral T cell study in paragraph 322
human CD44 (on cells) [7] = target: T3, human CD44 (on cells); experiment: cell-based or functional assay; remark: listed apart in the source
[8] = target: T2, cynomolgus CD44 (on cells); experiment: cell-based or functional assay
[9] = target: T4, human CD44-IgG1 fusion protein …; experiment: BIAcore 2000 SPR, human CD44-Ig immobilised on a CM-5 chip, antibody 100 to 0.1 ug/ml as analyte
Experimental: Human CD44-Ig (55 RU, 86 RU) and cyno CD44-Ig (99 RU, 116 RU) were immobilized to CM-5 chips at a concentration of 10 ug/ml in 10 mM Na Acetate pH 3.5. […] The chip was then regenerated with 50 mM NaOH and washed with HBS-EP (BIAcore 22-0512-44). Analysis was carried out on the Biacore 2000. Data was analyzed using BIAEvaluation™ software (n=2).

[10] = target: T4, human CD44-IgG1 fusion protein …; experiment: ELISA on plate-coated CD44-Ig (50 ng), anti-human kappa-HRP detection
Experimental: as §1

[11] = target: T4, human CD44-IgG1 fusion protein …; experiment: BIAcore SPR, human CD44-Fc fusion immobilised on a CM5 chip, antibody as analyte
Experimental: Surface plasmon resonance was used to measure the molecular interaction on a CM5 sensor chip coated with human CD44-Fc fusion protein (12 μg/ml, 10 mM Acetate, pH 4.0) on the surface. Anti-CD44 Abs at concentration of 5, 3, 2, 1, 0.5 and 0.25 μg/ml were screened by direct method. Human IgG1 and IgG2 standards were used to check nonspecific and background binding. Initial portion of the association and dissociation phase of the curves are used to calculate affinity and rate constants and is reported in TABLE 17.

human CD44 (on cells) [12] = target: T3, human CD44 (on cells); experiment: FACS equilibrium binding analysis on 300-19 cells transduced with human CD44; printed as 'binding constant'
Experimental: The 300-19 cells which were transduced with retroviral vector encoding human CD44 protein and were washed two times by PBS. […] After 3 hours the cells were washed twice with FACS buffer. The cells were resuspended into 250 μl of 1% paraformaldehyde, (Electron Microscopy Science, Ft. Washington, Pa., Cat. No. 15710). The tubes were read using Becton Dickinson FACSCalibur and the data was analyzed using CellQuest Pro (Becton Dickinson).

human CD44 (on cells) [13] = target: T3, human CD44 (on cells); experiment: cell-based or functional assay; remark: listed apart in the source
[14] = target: T4, human CD44-IgG1 fusion protein …; experiment: ELISA: antibody pre-mixed with human CD44-Ig (0.6 µg/ml); inhibition of CD44-Ig binding to plate-coated hyaluronic acid (HA, a polysaccharide)
Experimental: (§2) Human anti-CD44 antibodies were evaluated for their ability to inhibit the interaction between HA (Sigma, Cat. No. H5388) and human CD44 protein (SEQ ID NO:3) as described in EXAMPLE 2.
(§3) Binding assays were conducted in 96 well ELISA assay plates (Immunolux HB Maxisorp 96-well plates, Nunc Cat. No. 442-404). On day one, 100 μl of rooster comb HA diluted in 50 mM Nabicarb buffer, pH 9.6 at 2.5 mg/ml was added to assay wells on the plate and incubate at 4° C. overnight. Approximately, 24 hours later the HA coated plates were washed four times using 300 μl of PBS buffer with 0.05% Tween-20 (Sigma, Cat. No. P1379). The plates were then blocked by adding 200 μl of 3% BSA in PBS to each well and incubated for 2 hours at 37° C. The blocked plates were then washed with PBS with 0.05% Tween-20. […] The mixture was incubated at room temperature for 60 minutes and then transferred to the HA-coated plates and incubate at room temperature for one hour. The plates were washed by PBS with 0.05% Tween-20. Anti-human IgG-HRP (Amersham Biosciences, Piscataway, N.J., State, Cat. No. NA933) diluted 1:500 in 1% BSA (to detect CD44-Ig that is bound to HA) were added to each wells and incubate at room temperature. […] The reactions were then stopped with 50 μl of stop solution and OD₄₅₀ values were measured on a plate reader.

[15] = target: T4, human CD44-IgG1 fusion protein …; experiment: ELISA: antibody pre-mixed with human CD44-Ig (0.6 µg/ml); inhibition of CD44-Ig binding to plate-coated hyaluronic acid (HA)
Experimental: as §2, §3

Binder | binding result [1] | IC50 of IFN-γ release from human peripheral blood activated by anti-CD3 and anti-CD28 antibodies (human CD44 (on cells) [2]) | IC50 of IL-2 release from human peripheral blood activated by anti-CD3 and anti-CD28 antibodies (human CD44 (on cells) [2]) | fold selectivity for CD44 over LYVE-1 [3] | IC50 of reduction of CD44 surface expression on human peripheral CD3+ T cells (FACS) (human CD44 (on cells) [4]) | IC50 of reduction of CD44 surface expression on cynomolgus peripheral CD3+ T cells (FACS) [5] | EC50 [10] | Kd [11] | koff [11] | IC50 of IL-1β release from purified human PBMC stimulated by HA (human CD44 (on cells) [13]) | IC50 [15] | further results
anti-CD44 monoclonal antibody 14G9.B8.B4 (antibody, human IgG1, kappa, V domains shown) VH: QVQLVQSGAEVKKPGASVKVSCKASGYTFTNYAMHWVRQAPGQRLEWMGWINTGNGNTKYSQKFQGRVTITRDTSASTAYMELSSLRSEDTAVYYCARFYSGSGSPWGQGTLVTVSS VL: not shown | no binding (tested: 10 µg/ml) | – | – | – | – | – | – | – | – | – | – | –
anti-CD44 monoclonal antibody 1A9.A6.B9 (antibody, human IgG2, kappa, V domains shown, also called mAb 1A9.A6.B9) VH: QVQLVESGGGVVQPGRSLRLSCAASGFTFSSYGMHWVRQAPGKGLEWVAVIWYDGSNKFYADSVKGRFTISRDNSKNTLYLQMNSLRAEDTAVYYCARRSDYRGYYGMDVWGQGTTVTVSS VL: EIVLTQSPATLSLSPGERATLSCRASQSVINYLAWYQQKPGQAPRLLIYDASNRASGIPARFSGSGSGTDFTLTISSLEPEDFAVYYCQQRRNWPLTFGGGTKVEIKR | no binding (tested: 10 µg/ml) | 2.46 µg/mL | 0.58 µg/mL | > 100 fold | 2.8 µg/mL | 0.82 µg/mL | 0.011 µg/mL | 0.6 nM | 0.000576 s⁻¹ | 0.83 µg/mL | – | IC50 (read off the curve) (human CD44 (on cells) [6]): ~3 µg/mL; IC50 of reduction of CD44 expression on human peripheral blood B cells (FACS) (human CD44 (on cells) [7]): 2.4 µg/mL; IC50 of reduction of CD44 expression on human peripheral blood T cells (FACS) (human CD44 (on cells) [7]): 2.6 µg/mL; IC50 of reduction of CD44 expression on human peripheral blood monocytes (FACS) (human CD44 (on cells) [7]): 3.3 µg/mL; IC50 of reduction of CD44 expression on cynomolgus peripheral blood T cells (FACS) [8]: 1.1 µg/mL; Kd [9]: 0.051 nM; koff [9]: 0.00039 s⁻¹; Kd (human CD44 (on cells) [12]): 6.8 nM; IC50 [14]: 0.41 µg/mL
anti-CD44 monoclonal antibody 10C8.2.3 (antibody, human IgG4, kappa, V domains shown) VH: EVQLMESGGGLVKPGGSLRLSCAASGFTFSSYSMNWVRQAPGKGLEWVSSITVRSSYIYYADSVKGRFTISRDNAKNSLYLQMNSLRAEDTAVYYCARVLAIAVPGTSYYYYGMDVWGQGTTVTVSS VL: not shown | – | – | – | – | > 20 µg/mL | – | – | – | – | 0.4 µg/mL | 0.64 µg/mL | –
2D1 WT/H38Q (mutated antibody 2D1.A3.D12: wild-type heavy chain, light chain H38Q) (antibody, human IgG1, kappa, V domains shown) VH: QVQLVQSGAEVKKPGASVKVSCKASGYIFTSYAMHWVRQAPGQRLEWMGWINAAIGSTKYSQKFQGRVTITRDTSASTAYMELSSLRSEDTAVYYCARDGWEDYYYHGMDVWGQGTTVTVSS VL: DIQMTQSPSSVSASVGDRVTITCRASQGISSWLAWYQQKPGKAPKLLIYAASSLQSGVPSRFSGSGSGTDFTLTISSLQPEDFATYYCQQANNFPWTFGQGTKVEIKR | – | 2.45 µg/mL | 0.46 µg/mL | – | – | – | – | – | – | – | – | –
anti-CD44 monoclonal antibody 2D1.A3.D12 (antibody, human IgG1, kappa, V domains shown) VH: QVQLVQSGAEVKKPGASVKVSCKASGYIFTSYAMHWVRQAPGQRLEWMGWINAAIGSTKYSQKFQGRVTITRDTSASTAYMELSSLRSEDTAVYYCARDGWEDYYYHGMDVWGQGTTVTVSS VL: DIQMTQSPSSVSASVGDRVTITCRASQGISSWLAWYQHKPGKAPKLLIYAASSLQSGVPSRFSGSGSGTDFTLTISSLQPEDFATYYCQQANNFPWTFGQGTKVEIKR | no binding (tested: 10 µg/ml) | – | – | > 100 fold | > 20 µg/mL | > 20 µg/mL | 0.024 µg/mL | 2.01 nM | 0.000653 s⁻¹ | 0.23 µg/mL | 0.33 µg/mL | –

From patent US20100092484A1 (published 2010)
